Laboratory results taken from article PMC9482650, “Quantitative fragmentomics allow affinity mapping of interactomes” (Nature Communications, 2022).
Each block holds one binder with its values, some of them ahead of it.

Assays:
Experiment in all cases: holdup assay
Set-up in all cases: key: below the threshold = too weak to quantify, mostly under pKd 3.1 to 4
[1] = molecular target: T1, APBA1_2, Q02410
T1 sequence (Q02410 742-832, limits assumed, looked up): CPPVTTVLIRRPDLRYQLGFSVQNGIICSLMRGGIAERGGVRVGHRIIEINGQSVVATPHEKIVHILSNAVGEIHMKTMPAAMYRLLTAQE

[2] = molecular target: T2, CARD11, Q9BXL7
T2 sequence (Q9BXL7 662-765, limits assumed, looked up): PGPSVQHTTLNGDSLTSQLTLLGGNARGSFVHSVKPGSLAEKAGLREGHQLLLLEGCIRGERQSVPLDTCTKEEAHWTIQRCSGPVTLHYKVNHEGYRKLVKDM

[3] = molecular target: DLG4_3, P78352
[4] = molecular target: DLG5_1, Q8TDM6
[5] = molecular target: GRASP, Q7Z6J2
[6] = molecular target: GRIP2_4, Q9C0E4
[7] = molecular target: GRIP2_6, Q9C0E4
[8] = molecular target: HTRA2, O43464
[9] = molecular target: IL16_4, Q14005
[10] = molecular target: Inadl_3, Q8NI35
[11] = molecular target: Inadl_8, Q8NI35
[12] = molecular target: Inadl_9, Q8NI35
[13] = molecular target: LIMK2, P53671
[14] = molecular target: T3, LIN7A, O14910
T3 sequence (O14910 103-200, limits assumed, looked up): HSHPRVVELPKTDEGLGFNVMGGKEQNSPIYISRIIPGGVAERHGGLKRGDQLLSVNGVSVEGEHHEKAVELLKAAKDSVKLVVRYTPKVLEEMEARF

[15] = molecular target: LNX1_3, Q8TBB1
[16] = molecular target: T4, LNX2_3, Q8N448
T4 sequence (Q8N448 463-564, limits assumed, looked up): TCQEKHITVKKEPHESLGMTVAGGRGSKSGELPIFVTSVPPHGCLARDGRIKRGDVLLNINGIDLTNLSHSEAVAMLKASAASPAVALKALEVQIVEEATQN

[17] = molecular target: MAGI1_1, Q96QZ7
[18] = molecular target: MAGI2_2, Q86UL8
[19] = molecular target: T5, MPDZ_12, O75970
T5 sequence (O75970 1857-1958, limits assumed, looked up): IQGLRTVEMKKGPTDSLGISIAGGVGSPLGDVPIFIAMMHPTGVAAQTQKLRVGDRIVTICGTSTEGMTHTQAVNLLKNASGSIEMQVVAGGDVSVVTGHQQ

[20] = molecular target: NHERF2_2, Q15599
[21] = molecular target: T6, NHERF3_4, Q5T2W1
T6 sequence (Q5T2W1 373-468, limits assumed, looked up): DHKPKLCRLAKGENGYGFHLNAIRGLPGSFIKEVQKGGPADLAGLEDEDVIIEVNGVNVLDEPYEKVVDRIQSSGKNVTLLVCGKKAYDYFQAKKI

[22] = molecular target: NHERF4_1, Q86UT5-2
[23] = molecular target: PARD3_3, Q8TEW0
[24] = molecular target: T7, PDZD2_2, O15018
T7 sequence (O15018 329-429, limits assumed, looked up): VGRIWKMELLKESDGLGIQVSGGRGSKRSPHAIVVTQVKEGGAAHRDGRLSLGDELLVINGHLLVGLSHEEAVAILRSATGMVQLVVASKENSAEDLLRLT

[25] = molecular target: T8, RAPGEF6, Q8TEU7
T8 sequence (Q8TEU7 525-625, limits assumed, looked up): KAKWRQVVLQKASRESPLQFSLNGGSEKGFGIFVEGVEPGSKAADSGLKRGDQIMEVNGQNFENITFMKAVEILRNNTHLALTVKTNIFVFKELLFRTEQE

[26] = molecular target: SCRIB_1, Q14160
[27] = molecular target: T9, SHANK1, Q9Y566
T9 sequence (Q9Y566 658-767, limits assumed, looked up): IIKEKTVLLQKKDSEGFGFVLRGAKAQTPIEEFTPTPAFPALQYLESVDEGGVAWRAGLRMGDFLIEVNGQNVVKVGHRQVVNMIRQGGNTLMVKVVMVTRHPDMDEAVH

[28] = molecular target: SNX27, Q96L92
[29] = molecular target: TJP2_1, Q9UDY2
[30] = plain residues with an end cap or a label only (N-terminal biotin on a linker: ado-ado)
[31] = modified: phospho on T at position -1 from the C-terminal residue
[32] = modified: phospho on T at position -2 from the C-terminal residue

Sequence of GRASP, Q7Z6J2 (Q7Z6J2 96-193): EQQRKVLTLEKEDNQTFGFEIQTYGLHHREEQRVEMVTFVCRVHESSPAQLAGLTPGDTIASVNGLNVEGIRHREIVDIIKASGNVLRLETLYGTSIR
Sequence of Inadl_8, Q8NI35 (Q8NI35 1425-1530): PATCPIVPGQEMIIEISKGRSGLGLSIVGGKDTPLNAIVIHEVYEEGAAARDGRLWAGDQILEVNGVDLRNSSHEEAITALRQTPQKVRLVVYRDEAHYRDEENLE
Sequence of NHERF4_1, Q86UT5-2 (Q86UT5 other isoform, or with tags, fused parts or gaps): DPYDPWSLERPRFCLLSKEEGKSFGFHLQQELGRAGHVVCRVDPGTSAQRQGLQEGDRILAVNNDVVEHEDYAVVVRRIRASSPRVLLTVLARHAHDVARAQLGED
Sequence of Inadl_9, Q8NI35 (Q8NI35 1530-1615): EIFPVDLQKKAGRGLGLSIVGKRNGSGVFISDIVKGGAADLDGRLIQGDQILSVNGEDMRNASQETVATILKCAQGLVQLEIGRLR
Sequence of DLG4_3, P78352 (P78352 306-403): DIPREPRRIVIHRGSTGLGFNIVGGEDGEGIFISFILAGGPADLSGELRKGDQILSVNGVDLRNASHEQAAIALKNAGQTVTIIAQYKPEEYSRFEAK
Sequence of SCRIB_1, Q14160 (Q14160 718-814): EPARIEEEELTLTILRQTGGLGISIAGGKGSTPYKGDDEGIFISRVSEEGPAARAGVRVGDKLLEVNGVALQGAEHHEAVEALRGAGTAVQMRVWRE
Sequence of IL16_4, Q14005 (Q14005 1229-1329): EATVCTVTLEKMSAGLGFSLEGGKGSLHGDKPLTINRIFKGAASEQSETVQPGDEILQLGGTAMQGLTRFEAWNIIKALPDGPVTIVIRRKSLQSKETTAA
Sequence of GRIP2_4, Q9C0E4 (Q9C0E4 446-548): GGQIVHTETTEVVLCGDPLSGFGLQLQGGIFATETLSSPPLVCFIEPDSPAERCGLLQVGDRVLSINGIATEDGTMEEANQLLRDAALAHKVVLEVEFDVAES
Sequence of MAGI2_2, Q86UL8 (Q86UL8 410-522): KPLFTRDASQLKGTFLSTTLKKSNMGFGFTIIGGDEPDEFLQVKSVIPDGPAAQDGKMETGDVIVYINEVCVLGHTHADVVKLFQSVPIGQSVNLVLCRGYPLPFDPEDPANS
Sequence of LNX1_3, Q8TBB1 (Q8TBB1 500-596): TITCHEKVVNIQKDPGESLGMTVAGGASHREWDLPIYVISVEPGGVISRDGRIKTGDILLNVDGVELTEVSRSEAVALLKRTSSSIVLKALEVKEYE
Sequence of GRIP2_6, Q9C0E4 (Q9C0E4 648-740): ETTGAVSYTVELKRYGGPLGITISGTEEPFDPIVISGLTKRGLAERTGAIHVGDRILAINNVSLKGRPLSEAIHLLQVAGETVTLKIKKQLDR
Sequence of NHERF2_2, Q15599 (Q15599 142-238): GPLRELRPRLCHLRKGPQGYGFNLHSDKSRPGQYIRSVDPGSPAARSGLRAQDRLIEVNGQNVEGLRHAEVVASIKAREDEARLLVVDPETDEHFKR
Sequence of LIMK2, P53671 (P53671 143-248): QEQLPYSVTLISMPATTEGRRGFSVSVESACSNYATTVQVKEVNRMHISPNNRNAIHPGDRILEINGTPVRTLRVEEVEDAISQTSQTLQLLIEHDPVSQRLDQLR
Sequence of Inadl_3, Q8NI35 (Q8NI35 359-469): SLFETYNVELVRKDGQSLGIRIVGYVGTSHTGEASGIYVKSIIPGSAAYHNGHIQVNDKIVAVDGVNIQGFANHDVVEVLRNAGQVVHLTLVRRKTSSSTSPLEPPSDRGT
Sequence of PARD3_3, Q8TEW0 (Q8TEW0 582-685): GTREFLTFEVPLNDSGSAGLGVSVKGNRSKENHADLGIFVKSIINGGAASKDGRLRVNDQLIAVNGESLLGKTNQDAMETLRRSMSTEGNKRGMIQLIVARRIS
Sequence of DLG5_1, Q8TDM6 (Q8TDM6 617-713): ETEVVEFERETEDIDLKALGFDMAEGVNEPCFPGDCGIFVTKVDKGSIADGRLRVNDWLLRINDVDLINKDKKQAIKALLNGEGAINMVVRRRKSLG
Sequence of HTRA2, O43464 (O43464 355-458): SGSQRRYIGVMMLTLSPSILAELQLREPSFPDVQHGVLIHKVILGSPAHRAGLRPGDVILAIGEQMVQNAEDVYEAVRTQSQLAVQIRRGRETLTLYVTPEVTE
Sequence of MAGI1_1, Q96QZ7 (Q96QZ7 1-106): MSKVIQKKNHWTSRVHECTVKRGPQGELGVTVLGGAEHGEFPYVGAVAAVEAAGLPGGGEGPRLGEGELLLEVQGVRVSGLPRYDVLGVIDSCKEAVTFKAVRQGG
Sequence of TJP2_1, Q9UDY2 (Q9UDY2 24-128): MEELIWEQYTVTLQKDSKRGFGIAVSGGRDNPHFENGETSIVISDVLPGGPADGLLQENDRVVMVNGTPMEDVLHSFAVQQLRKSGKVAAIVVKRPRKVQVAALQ

pKd [1, 30]: below the threshold
pKd [2, 30]: below the threshold
pKd [3, 30]: below the threshold
pKd [4, 30]: below the threshold
pKd [5, 30]: 4.43
pKd [6, 30]: below the threshold
pKd [7, 30]: below the threshold
pKd [8, 30]: below the threshold
pKd [9, 30]: below the threshold
pKd [10, 30]: below the threshold
pKd [11, 30]: below the threshold
pKd [12, 30]: below the threshold
pKd [13, 30]: below the threshold
pKd [14, 30]: below the threshold
pKd [15, 30]: below the threshold
pKd [16, 30]: below the threshold
pKd [17, 30]: below the threshold
pKd [18, 30]: below the threshold
pKd [19, 30]: below the threshold
pKd [20, 30]: 4.29
pKd [21, 30]: 4.26
pKd [22, 30]: 4.18
pKd [23, 30]: below the threshold
pKd [24, 30]: 3.97
pKd [25, 30]: below the threshold
pKd [26, 30]: 3.78
pKd [27, 30]: 3.86
pKd [28, 30]: 4.68
pKd [29, 30]: below the threshold
Binder: LEPAVRSSEL [SH2D3C, Q8N5H7]

pKd [1, 32]: below the threshold
pKd [2, 32]: below the threshold
pKd [3, 32]: below the threshold
pKd [4, 32]: below the threshold
pKd [5, 32]: below the threshold
pKd [6, 32]: below the threshold
pKd [7, 32]: below the threshold
pKd [8, 32]: below the threshold
pKd [9, 32]: below the threshold
pKd [10, 32]: below the threshold
pKd [11, 32]: below the threshold
pKd [12, 32]: below the threshold
pKd [13, 32]: below the threshold
pKd [14, 32]: below the threshold
pKd [15, 32]: below the threshold
pKd [16, 32]: below the threshold
pKd [17, 32]: below the threshold
pKd [18, 32]: below the threshold
pKd [19, 32]: below the threshold
pKd [20, 32]: below the threshold
pKd [21, 32]: below the threshold
pKd [22, 32]: 3.69
pKd [23, 32]: below the threshold
pKd [24, 32]: below the threshold
pKd [25, 32]: below the threshold
pKd [26, 32]: below the threshold
pKd [27, 32]: below the threshold
pKd [28, 32]: below the threshold
pKd [29, 32]: below the threshold
Binder: RRVRKLPSTTL [RPS6KA1_-2P, Q15418]

The next lines start with the binder.

Binder: GQSVDLVFPV [AKIP1, Q9NQ31]
pKd [1, 30]: 3.85
pKd [2, 30]: 3.63
pKd [3, 30]: below the threshold
pKd [4, 30]: 3.48
pKd [5, 30]: 3.48
pKd [6, 30]: below the threshold
pKd [7, 30]: below the threshold
pKd [8, 30]: 3.54
pKd [9, 30]: below the threshold
pKd [10, 30]: below the threshold
pKd [11, 30]: below the threshold
pKd [12, 30]: 3.5
pKd [13, 30]: below the threshold
pKd [14, 30]: below the threshold
pKd [15, 30]: 3.96
pKd [16, 30]: below the threshold
pKd [17, 30]: below the threshold
pKd [18, 30]: below the threshold
pKd [19, 30]: 3.58
pKd [20, 30]: below the threshold
pKd [21, 30]: below the threshold
pKd [22, 30]: below the threshold
pKd [23, 30]: 3.66
pKd [24, 30]: below the threshold
pKd [25, 30]: below the threshold
pKd [26, 30]: below the threshold
pKd [27, 30]: below the threshold
pKd [28, 30]: 3.84
pKd [29, 30]: below the threshold

Binder: DQPLEKSTKL [AKAP10, O43572]
pKd [1, 30]: below the threshold
pKd [2, 30]: below the threshold
pKd [3, 30]: below the threshold
pKd [4, 30]: below the threshold
pKd [5, 30]: 4.06
pKd [6, 30]: below the threshold
pKd [7, 30]: below the threshold
pKd [8, 30]: below the threshold
pKd [9, 30]: below the threshold
pKd [10, 30]: below the threshold
pKd [11, 30]: below the threshold
pKd [12, 30]: below the threshold
pKd [13, 30]: below the threshold
pKd [14, 30]: below the threshold
pKd [15, 30]: below the threshold
pKd [16, 30]: below the threshold
pKd [17, 30]: below the threshold
pKd [18, 30]: below the threshold
pKd [19, 30]: 3.73
pKd [20, 30]: 5.02
pKd [21, 30]: 5.69
pKd [22, 30]: 4.28
pKd [23, 30]: below the threshold
pKd [24, 30]: 4.23
pKd [25, 30]: below the threshold
pKd [26, 30]: 3.72
pKd [27, 30]: 5.33
pKd [28, 30]: 5.08
pKd [29, 30]: below the threshold

Binder: RRVRKLPSTTL [RPS6KA1_-1P, Q15418]
pKd [1, 31]: below the threshold
pKd [2, 31]: below the threshold
pKd [3, 31]: 3.49
pKd [4, 31]: below the threshold
pKd [5, 31]: 3.8
pKd [6, 31]: below the threshold
pKd [7, 31]: below the threshold
pKd [8, 31]: 3.49
pKd [9, 31]: below the threshold
pKd [10, 31]: 3.76
pKd [11, 31]: 3.57
pKd [12, 31]: below the threshold
pKd [13, 31]: below the threshold
pKd [14, 31]: below the threshold
pKd [15, 31]: 3.39
pKd [16, 31]: below the threshold
pKd [17, 31]: 3.33
pKd [18, 31]: 3.92
pKd [19, 31]: below the threshold
pKd [20, 31]: 4.02
pKd [21, 31]: 3.75
pKd [22, 31]: 4.23
pKd [23, 31]: 3.84
pKd [24, 31]: 4.04
pKd [25, 31]: 3.38
pKd [26, 31]: 4.02
pKd [27, 31]: 4.06
pKd [28, 31]: 3.92
pKd [29, 31]: below the threshold
